Legend:
Receptor II kinase [1] = experiment: Receptor II assay: ligand enhancement of receptor II kinase activity; assay type: biochemical; conditions: saturating (high) ligand concentrations, 25 μM substrate, fixed amount of receptor II
Description: (§1) Before adding kinase substrate, incubate the mixture for 5 min to activate receptor II kinase by binding to insulin β. The incubation was done at room temperature for 30 min. Either 10 μL of 200 mM EDTA is added or the sample is frozen to stop the reaction before analysis. For the frozen sample, analysis was performed immediately after thawing the samples.
Analysis was done on a modified Henry chip with 5 mm effective separation length. The injection was performed by applying 400 V at well #2 for 45 s while grounding other wells. The separation conditions are: 0 V for Well #1, 400 V for well #2 and 4, 700 V for well #3.
As another example, receptor II (an insulin-related receptor) was studied in connection with insulin-like growth factor (IGF). A significant enhancement (>4 fold) in receptor II kinase activity was observed. Other ligands tested include insulin, insulin α and β chain. Both insulin and insulin β chain stimulated this receptor kinase activity by as much as 20 fold when a high concentration was used (Table 2). […] For this experiment, 25 μM substrate was used with a fixed amount of receptor II and various amounts of ligands to ensure a saturated binding between receptor and ligand.

Receptor II kinase [2] = experiment: Screening assay for competitive inhibitors: competition between insulin β chain and EGF, monitored by receptor II kinase activity; assay type: biochemical
Description: as §1, with “samples. Analysis was done on a modified Henry chip with 5 mm effective separation length. The injection was performed by applying 400 V at well #2 for 45 s while grounding other wells. The separation conditions are: 0 V for Well #1, 400 V for well #2 and 4, 700 V for well #3.” for “samples.”

extent of competition with activating ligand (Receptor II kinase [2]; higher insulin β concentration (15 μM), FIG. 14A) | extent of competition with activating ligand (Receptor II kinase [2]; lower insulin β chain concentration of 3 μM, FIG. 14B) | IC50 (Receptor II kinase [2]; read-out: IC50 of EGF competing with insulin β chain activation of receptor II kinase, insulin β chain at 3 μM and 15 μM, fixed receptor concentration) [nM] | Substance | Receptor II Kinase Activity Enhancement (fold) (Receptor II kinase [1]) | Receptor II Kinase Activity Enhancement (fold) (Receptor II kinase [1]; listed as Insulin α chain)
– | – | – | insulin | >20 fold | –
– | – | – | Insulin α chain | ˜3 fold | about 3 fold
did not show complete competition | near complete competition | 200 to 300 | Epidermal growth factor [EGF] | – | –
– | – | – | Insulin β chain | >20 fold | –

Source: patent US6846645B2, “Multiplexed enzymatic assays” (Aclara Biosciences, Inc., priority 2000, dated 2005)
